Changes are numbered by the printed parent chain.
B1: DigA16: affinity-improved mutein of the bilin-binding protein derived from DigA, encoded by SEQ ID NO:15 (polypeptide SEQ ID NO: 23) (protein)
chain: DVYHDGACPEVKPVDNFDWSQYHGKWWQVAAYPDHITKYGKCGWAEYTPEGKSVKVSRYSVIHGKEYFSEGTAYPVGDSKIGKIYHSYTIGGVTQEGVFNVLSTDNKNYIIGYFCSYDEDKKGHMDLVWVLSRSMVLTGEAKTAVENYLIGSPVVDSQKLVYSDFSEAACKVNN
B2: DigA: mutein of the bilin-binding protein selected for digoxigenin binding, SEQ ID NO:12 (amino acid sequence SEQ ID NO: 21) (protein)
chain: B1 chain with Q28E, A31K, D34H, I36E, T37R

Tests used:
Format in all cases: binding
[1] = Fluorescence titration of Bbp muteins with digoxigenin
Method: (§1) The ligand binding properties of muteins DigA, DigA16 and also of the recombinant bilin-binding protein (encoded by SEQ ID NO:16) were determined by means of the method of fluorescence titration. In this case, the decrease in intrinsic tyrosine and/or tryptophan fluorescence of the protein forming a complex with the ligand was measured. The measurements were carried out in a fluorimeter, type LS 50 B (Perkin Elmer) at an excitation wavelength of 295 nm (slit width 4 nm) and an emission wavelength of 345 nm (slit width 6 nm). The ligands used were digoxigenin (Fluka), digoxin (Fluka), digitoxigenin (Fluka), digitoxin (Fluka), testosterone (Sigma), ouabain (Fluka), and 4-aminofluorescein (Fluka).
(§2) The buffer system used was PBS with the addition of 1 mM EDTA. […] The concentration was determined by means of absorption at 280 nm using calculated extinction coefficients of 53580 M^−1 cm^−1 for DigA and DigA16 (Wisconsin Software Package, Genetics Computer Group). For Bbp, the calculated extinction coefficient of 54150 M^−1 cm^−1, corrected in the presence of guanidinium chloride according to Gill and von Hippel (Anal. Biochem. 182 (1989), 319–326) was used. […]
(§3) Here, F means the normalized fluorescence intensity and [L]t the total ligand concentration in the particular titration step. […]

[2] = Fluorescence titration of Bbp muteins with digoxin; conditions: 1 μM mutein, PBS with 1 mM EDTA, 25° C., read-out: Kd, ligand digoxin
Method: as §1, §2, §3

[3] = Fluorescence titration of Bbp muteins with digitoxigenin
Method: as §1, §2, §3

[4] = Fluorescence titration of Bbp muteins with digitoxin; conditions: 1 μM mutein, PBS with 1 mM EDTA, 25° C., read-out: Kd, ligand digitoxin
Method: as §1, §2, §3

[5] = Fluorescence titration of Bbp muteins with ouabain
Method: as §1, §2, §3

[6] = Fluorescence titration of Bbp muteins with testosterone; conditions: 1 μM mutein, PBS with 1 mM EDTA, 25° C., read-out: Kd, ligand testosterone
Method: as §1, §2, §3

[7] = Fluorescence titration of Bbp muteins with 4-aminofluorescein; conditions: 1 μM mutein, PBS with 1 mM EDTA, 25° C., read-out: Kd, ligand 4-aminofluroescein
Method: as §1, §2, §3

[8] = Sandwich ELISA detecting digoxigenin groups with DigA16-alkaline phosphatase fusion proteins; conditions: p-nitrophenyl phosphate hydrolysis, 405 nm, FIG. 3
From the text: Here, the digoxigenin groups were coupled on the one hand to bovine serum albumin (BSA, squares) or, on the other hand, to chicken egg albumin (ovalbumin, triangles) The control data shown are those obtained when using underivatized bovine serum albumin and the fusion protein encoded by pBBP27 (open circles). The enzymatic activity corresponding to the particular bound fusion protein was monitored spectrophotometrically at 405 nm on the basis of p-nitrophenyl phosphate hydrolysis. Curve fitting was carried out by non-linear regression with the aid of the Kaleidagraph computer program (Abelbeck Software) by means of the equation [P·L]=[L]t[P]t/(Kd+[P]t)
Here, [P]t corresponds to the total fusion protein concentration used in the particular microtiter plate well. [P·L] is determined on the basis of the enzymatic activity of alkaline phosphatase. […]
For detecting digoxigenin groups in a sandwich ELISA, the wells in in each case two rows of a microtiter plate (ELISA strips, 2×8 well with high binding capacity, F-type, Greiner) were filled in each case with 100 μl of a 100 μg/ml solution of the BSA-digoxigenin conjugate or the ovalbumin-digoxigenin conjugate in PBS and incubated at RT overnight. […] The fusion proteins bound to the digoxigenin groups were finally detected by means of alkaline phosphatase-catalyzed hydrolysis of p-nitrophenyl phosphate. […]

Row | Molecule | Kd ([1]; fluorescence titration, 1 μM mutein, PBS with 1 mM EDTA, 25° C., read-out: Kd, ligand digoxigenin) [nM] | Kd [2] [nM] | Kd ([3]; 1 μM mutein, PBS with 1 mM EDTA, 25° C., read-out: Kd, ligand digitoxigenin) [nM] | binding of digitoxigenin compared with digoxigenin (FIG. 1, in words) ([3]; FIG. 1) | Kd [4] [nM] | Kd ([5]; 1 μM mutein, PBS with 1 mM EDTA, 25° C., read-out: Kd, ligand ouabain) [nM] | binding of ouabain (FIG. 1, in words) ([5]; FIG. 1) | Kd [6] [nM] | Kd [7] [nM] | binding of the digoxigenin group as conjugate with BSA and with ovalbumin in ELISA (in words) [8] | Kd ([1]; determined according to Example 3, read-out: affinity between the mutein and digoxigenin) [nM]
1 | B1 | 30.2 ± 3.6 | 31.1 ± 3.2 | 2.8 ± 2.7 | bound even tighter than digoxigenin | 2.7 ± 2 | > 10000 | no binding is observed | > 10000 | > 10000 | context-independent | 
2 | B2 |  | 200 ± 34 |  |  |  |  |  |  |  |  | 295 ± 36
